Measurements as given in article PMC3537504.

Tests used:
[1] = biological target: GST-βII-spectrin-1-4 (GST fusion of repeats 1-4 of βII-spectrin) (rat); test: SPR
[2] = biological target: MBP-αII-cardi+ (MBP fusion of repeats 18-21 of αII-spectrin with the 21-amino acid cardi+ insert) (rat); test: far-Western, overlay or dot blot

Kd [1]	fold lower binding (response units at saturation) than MBP-αII-cardi− [1]	binding relative to the αII-cardi− protein (blot overlay, densitometry) [2]	Substance
1.09 nM	2 fold	–	MBP-αII-cardi+ (MBP fusion of repeats 18-21 of αII-spectrin with the 21-amino acid cardi+ insert) (domain or fragment)
0.57 nM	–	–	MBP-αII-cardi− (MBP fusion of repeats 18-21 of αII-spectrin without the cardi+ insert) (domain or fragment)
–	–	0.5 fold	GST-βII-spectrin-1-4 (GST fusion of repeats 1-4 of βII-spectrin) (domain or fragment)
